Reference: the supplement of paper PMC9170038

System: MS2 coat protein
Assay: apparent KD of MS2 coat protein; designed switch direction (-1 OFF switch, 1 ON switch): -1; higher = weaker reporter binding
Method in brief: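 Three titration conditions were used: no input, 200 uM small-molecule ligand, and an oligonucleotide input. In each, SNAP-549-labelled MS2 coat protein was raised from 0.7 or 1.5 nM, doubling, to 3 µM over designed RNA switches transcribed on Illumina chips by stalled E. coli RNA polymerase. Curve fits of normalised cluster fluorescence gave values whose per-design median over clusters is the apparent KD.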

[1] = input ligand: microRNA oligo, concentration not stated
[2] = Eterna round: R95, input ligand: microRNA oligo, concentration not stated

Sequence | apparent KD of MS2 coat protein (input ligand: FMN 200 uM) | apparent KD of MS2 coat protein (input ligand: none) | apparent KD of MS2 coat protein [1] | apparent KD of MS2 coat protein (Eterna round: R95, input ligand: FMN 200 uM) | apparent KD of MS2 coat protein [2] | apparent KD of MS2 coat protein (Eterna round: R95, input ligand: none)
GACAUUUGAGGAUAUGCAGCUAGCUUCGUUUUCAAAUCGAGACAUGAGGAUCACCCAUGUAGAAGGCAAGGUCG [Eternabot (L1) Solution 88] (Eterna round: R97, puzzle: Exclusion 2) | 29.4 nM | 31.9 nM |  |  |  | 
GACCAAUAGGUAGGAUAUCAUUGCGAUUAGCUAUGAGAAGGACCACAUGAGGAUCACCCAUGUCCUCUAAUUAGCCAAUUGGUA [8th something] (Eterna round: R96, puzzle: Exclusion NG 1) | 426 nM | 90.9 nM | 170 nM |  |  | 
GACCAGCUAGGAUAUACAUGAGGAUCACCCAUGUGCAUUAAAGGGCUGGGUGACCCGCGUAGAAGGAGCGGGUC [Ustieded] (Eterna round: R97, puzzle: Exclusion 3) | 13.9 nM | 14.5 nM |  |  |  | 
GACCCAACCGUUAGGAUAUAGUCGACCUACGGCGACUAGAAGGAACAUGAGGAUCACCCAUGUGUGCGCACAAC [Eternabot (Original) Solution 25] (Eterna round: R97, puzzle: Brourd's mod of Exclusion 4) | 190 nM | 60.8 nM |  |  |  | 
GACCGGACGUGGUCUGGUAACAUGAGGAUCACCCAUGUAGGUCUAAGAACAUGCCUUUUGCACGCUCGUCUUAUAUA [JR_SV3TOV1_Sub063] (puzzle: Sensor v3, turn-off variant 1) |  |  |  | 54.7 nM | 38.2 nM | 63.8 nM
GACCUACAUGAGGAUCACCCAUGUCAGGAUAUGUGGCGGAGUACGAACAGUCCAAGCGACAGAAGGGACAACAG [Eternabot (Original) Solution 24] (Eterna round: R97, puzzle: Exclusion 1) | 27.8 nM | 25.3 nM |  |  |  | 
GACCUAUAGGUAGGAUAUCAUUGCGAUUAGCUAUGAGAAGGACCACAUGAGGAUCACCCAUGUCCUCCAAUUAACCAUAAGGUC [Fiskers ExNg1 - 5] (Eterna round: R96, puzzle: Exclusion NG 1) | 98.7 nM | 40.9 nM | 34.6 nM |  |  | 
GACCUAUAGGUAGGAUAUCAUUGCGAUUAGCUAUGAGAAGGACCACAUGAGGAUCACCCAUGUCCUCCAAUUAGCCAUUUGGUC [Fiskers ExNg1 - 7] (Eterna round: R96, puzzle: Exclusion NG 1) | 196 nM | 58.3 nM | 47 nM |  |  | 
GACCUAUAGGUAGGAUAUCAUUGCGAUUAGCUAUGAGAAGGGCCACAUGAGGAUCACCCAUGUCCUCCAAUUAACCAUAAGGUC [Fiskers ExNg1 - 6] (Eterna round: R96, puzzle: Exclusion NG 1) | 38.5 nM | 37.3 nM | 26.7 nM |  |  | 
GACCUGAGGCAAAGCUUUAGGCUUACAUGAGGAUCACCCAUGUAGGAUAUGGUAGGCAAAGCUUACCAGAAGGACAUGGAAAUU [Mat - Exclusion NG 3 - Mod of JL - D25] (Eterna round: R96, puzzle: Exclusion NG 3) | 646 nM | 125 nM | 98.7 nM |  |  | 
GACGUGUGAGGAUAUGCCGUGCCGGUCCGGAAGGUUCGGGUGCAGAAGGCACAUGAGGAUCACCCAUGUGUAAG [Excls4-VI] (puzzle: Exclusion 4) |  |  |  |  | 17.7 nM | 
GACUGACAUGAGGAUCACCCAUGUAAGGAUAUAGGGAACGUCGUUCCGCAACCCGCGCCUAGAAGGUACAAGGU [EX1 C.11] (Eterna round: R97, puzzle: Exclusion 1) | 18.2 nM | 16.1 nM |  |  |  | 
GACUGCCGAGGAUAUACAUGAGGAUCACCCAUGUGCUUCAGCAUUUUUUGAUGCAUGGGUAGAAGGCGGUAGUU [LRO-Excl3-15] (puzzle: Exclusion 3) |  |  |  |  | 341 nM | 
GACUUCCGAGGAUAUACAUGAGGAUCACCCAUGUGCUUCAGCAUUUUUUGAUGCAUGGGUAGAAGGCGGUAGUU [LRO-Excl3-16] (puzzle: Exclusion 3) |  |  |  |  | 226 nM | 
